B1: FBXO3 (parent)
chain: GGFPIIRDQIFRYVHDPECVATTG

Variants of: B1
Test: protein stability index of a GFP-peptide fusion (GPS, HEK-293T) (PSI 1-6); higher = more stable
Details: c terminus: a fixed tail appended
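Note: lentivirally expressed fusions sorted by FACS into six bins by GFP to DsRed ratio, PSI derived from sequencing read proportions per bin multiplied by bin number.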

Protein stability index of substitutions, site by site:
G24: H 2.25; T 2.49; Q 2.78; A 1.83
V20: L 1.81; G 2.08; T 1.68; D 1.45; M 1.79; Y 1.9; N 2.49; E 2.22; Q 2.04; R 1.63; C 2.84; P 2.23; W 1.78; I 2.19; A 2.24; S 2.32; K 1.27; H 2.01; F 1.8
F11: W 1.9; D 3.94; L 3.02; K 2.85; R 2.89; Y 2.76; V 3.18; I 2.45; Q 3.1; G 3.48; E 3.58; T 3.35; S 3.45; P 3.38; C 2.92; A 3.59; M 2.78; N 3.67; H 4.01
Y13: R 3.22; S 3.62; F 1.75; N 3.58; C 2.32; M 2.88; L 2.51; H 2.28; Q 3.65; G 3.18; T 3.34; P 3.84; D 3.85; W 2.18; K 2.79; V 2.8; A 3.44; E 3.96; I 2.39
P17: L 1.81; V 1.46; Q 1.97; W 2.01; H 1.83; K 2.47; N 2.61; R 1.49; G 2.11; Y 1.64; F 2.01; D 2.91; S 2.93; M 2.1; C 1.83; E 2.34; T 2.42; A 1.84; I 1.43
Q9: Y 2.13; G 1.75; D 2.83; C 1.87; A 2.13; L 2.08; V 2.95; F 2.43; H 1.64; N 2.29; E 2.09; S 1.8; K 1.75; T 1.58; I 1.9; W 2.29; P 2.65; R 2.18
H15: I 1.62; Y 1.74; P 2.27; M 1.49; F 1.85; Q 2.02; R 1.68; S 1.5; D 2.41; V 2.58; E 2.85; K 2.05; G 1.78; C 1.97; W 1.85; T 2.28; L 1.94; A 1.95; N 1.84
R7: Y 1.87; T 2.72; V 1.73; L 1.32; P 2.47; M 1.53; I 1.69; K 2.4; S 2.45; H 2.56; W 2.21; N 2.83; Q 3.09
T23: P 1.71; C 1.91; V 1.61; E 2.09; I 1.89; F 2.25; H 1.89; R 1.64; A 1.8; Y 1.61; L 1.57; Q 1.96; G 1.12; D 1.66; M 1.73; K 2.03; S 1.59; N 2.13
T22: R 2.56; S 1.63; W 1.84; P 2.23; I 2.26; N 2.61; L 1.83; M 1.53; D 2.25; C 1.72; K 1.64; A 1.74; E 2.28; F 1.67; Y 1.88; G 1.66; H 1.92; V 1.67; Q 1.76
